For the assay, the target named is acetylcholine-binding protein (AChBP) from Lymnaea stagnalis, carboxy-terminal hexahistidine-tagged (Lymnaea stagnalis, UniProt P58154 20-229). In words: SPR.
Sequence of acetylcholine-binding protein (AChBP) from Lymnaea stagnalis, carboxy-terminal hexahistidine-tagged (P58154 20-229): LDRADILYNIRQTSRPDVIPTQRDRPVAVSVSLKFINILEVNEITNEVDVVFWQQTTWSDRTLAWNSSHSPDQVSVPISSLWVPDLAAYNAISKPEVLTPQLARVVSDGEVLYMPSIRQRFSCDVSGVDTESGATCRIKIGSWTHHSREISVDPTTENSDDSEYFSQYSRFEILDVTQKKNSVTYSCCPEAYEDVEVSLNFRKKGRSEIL

B1: α-bungarotoxin (natural protein)
chain: IVCHTTATSPISAVTCPPGENLCYRKMWCDAFCSSRGKVVELGCAATCPSKKPYEEVTCCSTDKCNPHPKQRPG
Turning to B1, the binding result is given as “binds”.

The values are drawn from publication PMC2684811 (Analytical biochemistry, 2009).
